Laboratory results taken from patent US20180016349A1 (Takeda / Millennium, published 2018).

B1: Ab110 (antibody, human IgG1, lambda, V domains shown)
VH: EVQLLESGGGLVQPGGSLRLSCAASGFTFSSYGMHWVRQAPGKGLEWVSIIYSGGSTYYADSVKGRFTISRDNSKNTLYLQMNSLRAEDTAVYYCARRATWGGATHDYWGQGTLVTVSS
VL: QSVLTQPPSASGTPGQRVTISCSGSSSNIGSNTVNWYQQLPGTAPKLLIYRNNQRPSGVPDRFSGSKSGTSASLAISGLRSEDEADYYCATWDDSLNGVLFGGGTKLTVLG
B2: Ab43 (antibody, human IgG1, lambda, V domains shown)
VH: EVQLLESGGGLVQPGGSLRLSCAASGFTFSSYGMHWVRQAPGKGLEWVSRINSDGSSTSYADSMKGQFTISRDNSKNTLYLQMNSLRAEDTAVYYCARGGYYYYAMDVWGQGTLVTVSS
VL: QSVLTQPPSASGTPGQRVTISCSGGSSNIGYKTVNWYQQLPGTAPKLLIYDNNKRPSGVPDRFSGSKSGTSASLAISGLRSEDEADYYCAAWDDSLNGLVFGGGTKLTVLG
B3: Ab79 (antibody, human IgG1, lambda, V domains shown)
VH: EVQLLESGGGLVQPGGSLRLSCAASGFTFDDYGMSWVRQAPGKGLEWVSDISWNGGKTHYVDSVKGQFTISRDNSKNTLYLQMNSLRAEDTAVYYCARGSLFHDSSGFYFGHWGQGTLVTVSS
VL: QSVLTQPPSASGTPGQRVTISCSGSSSNIGDNYVSWYQQLPGTAPKLLIYRDSQRPSGVPDRFSGSKSGTSASLAISGLRSEDEADYYCQSYDSSLSGSVFGGGTKLTVLG
notes: also called TSF79
B4: Ab19 (antibody, human IgG1, lambda, V domains shown)
VH: EVQLLESGGGLVQPGGSLRLSCAASGFTFNNYDMTWVRQAPGKGLEWVAVISYDGSDKDYADSVKGRFTISRDNSKNTLYLQMNSLRAEDTAVYYCARVYYYGFSGPSMDVWGQGTLVTVSS
VL: QSVLTQPPSASGTPGQRVTISCSGSNSNIGSNTVNWYQQLPGTAPKLLIYSDSNRPSGVPDRFSGSKSGTSASLAISGLRSEDEADYYCQSYDSSLSGSRVFGGGTKLTVLG
B5: Ab72 (antibody, human IgG1, lambda, V domains shown)
VH: EVQLLESGGGLVQPGGSLRLSCAASGFTFSSYGMNWVRQAPGKGLEWVSGISGSGGSTYYADSVKGRFTISRDNSKNTLYLQMNSLRAEDTAVYYCAKDSNYDFWSGYYYGMDVWGQGTLVTVSS
VL: QSVLTQPPSASGTPGQRVTISCSGSSSNIGSKTVSWYQQLPGTAPKLLIYDNNKRPSGVPDRFSGSKSGTSASLAISGLRSEDEADYYCSSYAARSTNIIFGGGTKLTVLG

target: T1, human CD38 on cells (MOLP-8, RPMI-8226, Daudi cell lines, patient cells and tissues) (human, UniProt P28907 1-300); assay: cell-based or functional assay

ADCC EC50 nM (DAUDI) [nM]	ADCC EC50 nM (MOLP-8) [nM]	ADCC EC50 nM (RPMI-8226) [nM]	Apoptosis EC50 nM (DAUDI) [nM]	CDC EC50 nM (MOLP-8) [nM]	Binder
0.24	0.874	2.98	0.4	1.99	B1
0.12	0.027	3.84	1.56	2.2	B2
0.03	0.047	0.46	0.048	1.1	B3
0.08	0.038	0.46	0.032	0.98	B4
0.14	0.193	2.35	0.35	0.66	B5

target: T2, soluble human CD38 ectodomain (ECD), R&D Systems Cat #2404-AC (human, UniProt P28907 43-300); assay: SPR Biacore A100, 22 C, mAb captured by anti-human IgG, soluble human CD38 ECD as analyte, 1:1 fit
T2 construct: Bought ectodomain; also called HuCD38; human recombinant CD38

Kd [nM]	koff [s⁻¹]	kon [M⁻¹ s⁻¹]	Binder
1400	0.171	122000	B1
537	0.146	272000	B2
5.5			B3
5.3			B4
126	0.00182	14400	B5

target: T1, human CD38 on cells (MOLP-8, RPMI-8226, …); assay: flow cytometry (FACS KD) on RPMI-8226 cells

Kd [nM]	Binder
0.508	B3

target: T1, human CD38 on cells (MOLP-8, RPMI-8226, …); assay: flow cytometry titration on MOLP-8 cells, 4 C, nonlinear fit; 95% confidence interval in parentheses

Kd [nM]	Binder
1	B1
1.1	B2
1.2	B3
0.4	B4
0.6	B5

target: T3, cynomolgus CD38 (cynomolgus (Macaca fascicularis), UniProt Q5VAN0 1-301, limits assumed); assay: not described at this place (FACS screen on CHO cells expressing cynomolgus CD38 is described in Example 3)
T3 construct: also called cyCD38; cyno CD38
T3 sequence (Q5VAN0 whole entry): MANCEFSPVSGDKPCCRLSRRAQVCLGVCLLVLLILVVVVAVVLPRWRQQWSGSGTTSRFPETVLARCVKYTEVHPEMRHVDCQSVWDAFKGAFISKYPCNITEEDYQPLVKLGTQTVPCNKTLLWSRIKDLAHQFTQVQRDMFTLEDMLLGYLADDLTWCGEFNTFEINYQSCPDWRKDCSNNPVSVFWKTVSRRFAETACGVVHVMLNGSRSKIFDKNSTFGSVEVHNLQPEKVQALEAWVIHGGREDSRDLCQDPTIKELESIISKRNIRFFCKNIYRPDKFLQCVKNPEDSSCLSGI

binding result	Binder
binds	B3
binds	B4
